Source: article PMC9808001 (2022)

Target: RAB1A (Homo sapiens (Human), UniProt P62820)
Test: BLI

Chain of RAB1A (P62820 6-177): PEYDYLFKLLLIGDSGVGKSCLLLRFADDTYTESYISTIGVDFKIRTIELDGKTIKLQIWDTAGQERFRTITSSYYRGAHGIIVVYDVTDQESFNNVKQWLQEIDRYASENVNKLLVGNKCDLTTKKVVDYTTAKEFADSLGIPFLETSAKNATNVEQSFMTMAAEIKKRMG

Kd: > 500 nM
B1: WDR44 (protein)
chain: VMGPQRPRSNSGRELTDEEILASVMIKNLDTGEEIPLSLAEEKLPTGINPLTLHIM
